Data: the supplement of paper PMC9112550, “Optimization of the antimicrobial peptide Bac7 by deep mutational scanning” (BMC Biology, 2022)

Test system: Escherichia coli TOP10
Assay: shrunken log2 fold change of peptide-encoding DNA abundance (4.5 h post-induction vs induction); higher = less antimicrobial activity (less host growth inhibition)
Details: time post-induction: 4.5 h; library: site-saturation at positions 5, 18, 19, 20
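Further: peptides expressed intracellularly from a pBAD plasmid library in pooled LB shake-flask culture, induced with 0.3% L-arabinose, DNA abundance read by NGS, three biological replicates, DESeq2 with apeglm shrinkage.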

Sequence	shrunken log2 fold change
RRIRHRPPRLPRPRPRPEFSPRP	-0.246
RRIRSRPPRLPRPRPRPIVLPRP	-0.639
RRIRKRPPRLPRPRPRPDTPPRP	0.546
RRIRLRPPRLPRPRPRPETRPRP	0.0057
RRIRMRPPRLPRPRPRPVFQPRP	0.168
RRIRMRPPRLPRPRPRPNPRPRP	0.718
RRIRQRPPRLPRPRPRPGNKPRP	-0.596
RRIRGRPPRLPRPRPRPINRPRP	-0.231
RRIRMRPPRLPRPRPRPAGGPRP	0.831
RRIRHRPPRLPRPRPRPFSPPRP	0.0457
RRIRCRPPRLPRPRPRPCSFPRP	-0.57
RRIRMRPPRLPRPRPRPVNEPRP	0.0186
RRIRDRPPRLPRPRPRPLFKPRP	-0.221
RRIRARPPRLPRPRPRPQDVPRP	-0.136
RRIRCRPPRLPRPRPRPMQIPRP	0.0467
RRIRMRPPRLPRPRPRPPDVPRP	0.00748
RRIRMRPPRLPRPRPRPYCSPRP	-0.122
RRIRIRPPRLPRPRPRPHMAPRP	-0.367
RRIRWRPPRLPRPRPRPTWEPRP	0.314
RRIRSRPPRLPRPRPRPVFSPRP	-0.43
RRIRKRPPRLPRPRPRPDCKPRP	-0.0333
RRIRMRPPRLPRPRPRPNGAPRP	0.0765
RRIRIRPPRLPRPRPRPKHMPRP	-0.451
RRIRKRPPRLPRPRPRPWPDPRP	0.238
RRIRKRPPRLPRPRPRPYECPRP	-0.341

Sequence	shrunken log2 fold change
RRIRERPPRLPRPRPRPTYFPRP	-0.475
RRIRIRPPRLPRPRPRPHPGPRP	-0.571
RRIRERPPRLPRPRPRPIQSPRP	-0.642
RRIRGRPPRLPRPRPRPQTNPRP	0.433
RRIRERPPRLPRPRPRPKHSPRP	0.111
RRIRNRPPRLPRPRPRPSYKPRP	-0.819
RRIRERPPRLPRPRPRPTIKPRP	-0.178
RRIRIRPPRLPRPRPRPYFCPRP	-1.26
RRIRQRPPRLPRPRPRPGARPRP	0.451
RRIRSRPPRLPRPRPRPYCFPRP	-0.544
RRIRPRPPRLPRPRPRPVVQPRP	0.28
RRIRCRPPRLPRPRPRPCVHPRP	-0.0561
RRIRSRPPRLPRPRPRPPQNPRP	0.294
RRIRRRPPRLPRPRPRPGNHPRP	0.0323
RRIRRRPPRLPRPRPRPYRNPRP	0.0114
RRIRFRPPRLPRPRPRPICFPRP	-0.293
RRIRFRPPRLPRPRPRPYRYPRP	0.0548
RRIRVRPPRLPRPRPRPGVKPRP	0.303
RRIRLRPPRLPRPRPRPAVHPRP	-0.149
RRIRYRPPRLPRPRPRPKYGPRP	-0.176
RRIRCRPPRLPRPRPRPIYHPRP	-0.905
RRIRTRPPRLPRPRPRPEEIPRP	0.0464
RRIRPRPPRLPRPRPRPWDFPRP	0.122
RRIRDRPPRLPRPRPRPERYPRP	0.00592
RRIRLRPPRLPRPRPRPPRWPRP	0.408
